Reference: article PMC9276669, “Purification, characterization, and preliminary serial crystallography diffraction advances structure determination of full-length human particulate guanylyl cyclase A receptor” (Scientific Reports, 2022)
Values joined by “and” are separate entries in the source; they are usually repeats but may differ in a detail not shown here. Equal entries are not always repeated.

Target: the molecule itself
Assay: SEC; Superose 6 Increase 10/300 GL, 50 mM HEPES-NaOH pH 7.5, 150 mM NaCl, 5 mM DTT, 10% glycerol, 0.05% DDM, 0.01% CHS, 4 °C; more concentrated injected sample (about 300 uL); sizes by comparison with five standard proteins; monomer to tetramer

B1: full-length human particulate guanylyl cyclase A receptor (pGC-A) (receptor, UniProt P16066 33-1061, looked up)
chain: GNLTVAVVLPLANTSYPWSWARVGPAVELALAQVKARPDLLPGWTVRTVLGSSENALGVCSDTAAPLAAVDLKWEHNPAVFLGPGCVYAAAPVGRFTAHWRVPLLTAGAPALGFGVKDEYALTTRAGPSYAKLGDFVAALHRRLGWERQALMLYAYRPGDEEHCFFLVEGLFMRVRDRLNITVDHLEFAEDDLSHYTRLLRTMPRKGRVIYICSSPDAFRTLMLLALEAGLCGEDYVFFHLDIFGQSLQGGQGPAPRRPWERGDGQDVSARQAFQAAKIITYKDPDNPEYLEFLKQLKHLAYEQFNFTMEDGLVNTIPASFHDGLLLYIQAVTETLAHGGTVTDGENITQRMWNRSFQGVTGYLKIDSSGDRETDFSLWDMDPENGAFRVVLNYNGTSQELVAVSGRKLNWPLGYPPPDIPKCGFDNEDPACNQDHLSTLEVLALVGSLSLLGILIVSFFIYRKMQLEKELASELWRVRWEDVEPSSLERHLRSAGSRLTLSGRGSNYGSLLTTEGQFQVFAKTAYYKGNLVAVKRVNRKRIELTRKVLFELKHMRDVQNEHLTRFVGACTDPPNICILTEYCPRGSLQDILENESITLDWMFRYSLTNDIVKGMLFLHNGAICSHGNLKSSNCVVDGRFVLKITDYGLESFRDLDPEQGHTVYAKKLWTAPELLRMASPPVRGSQAGDVYSFGIILQEIALRSGVFHVEGLDLSPKEIIERVTRGEQPPFRPSLALQSHLEELGLLMQRCWAEDPQERPPFQQIRLTLRKFNRENSSNILDNLLSRMEQYANNLEELVEERTQAYLEEKRKAEALLYQILPHSVAEQLKRGETVQAEAFDSVTIYFSDIVGFTALSAESTPMQVVTLLNDLYTCFDAVIDNFDVYKVETIGDAYMVVSGLPVRNGRLHACEVARMALALLDAVRSFRIRHRPQEQLRLRIGIHTGPVCAGVVGLKMPRYCLFGDTVNTASRMESNGEALKIHLSSETKAVLEEFGGFELELRGDVEMKGKGKVRTYWLLGERGSSTRG
notes: transmembrane domain at residues 474-495; no TEV cleavage step is described; Found as monomer and as tetramer, depending on protein concentration; also called Particulate Guanylyl Cyclase Receptor A; natriuretic peptide receptor A; source: also on whole transfected Sf9 cells
B1 was tested, and the “stoichiometry N” value was 4 and 2.
